US20160096892A1 (Novartis, published 2016)

Target: T1, recombinant Fc-tagged hsCD33 (human, UniProt P20138 18-259)
T1 construct: Soluble staining reagent, detected with a PE-conjugated Fc-specific secondary antibody; not shown: Fc tag
Experiment: flow cytometry; JNL cells displaying the scFv CAR, recombinant Fc-tagged hsCD33, PE anti-Fc secondary
Procedure: FIG. 32 is an image depicting cross-reactivity of T cells expressing scFvs targeting CD33 to cynomolgus CD33 (cyCD33) by flow cytometry. JNL cells transduced with a lentiviral vector expressing scFv's raised against hsCD33 were incubated with either recombinant Fc-tagged hsCD33 (dotted line) or cyCD33 (solid line) followed by incubation with an Fc-specific secondary antibody conjugated to phycoerythrin.
Finally, scFv cross-reactivity to cynomolgus CD33 (cyCD33) was assessed by flow cytometry as depicted in FIG. 32. JNL cells transduced with a lentiviral vector expressing scFv's raised against hsCD33 were incubated with either recombinant Fc-tagged hsCD33 (red line) or cyCD33 (blue line) followed by incubation with an Fc-specific secondary antibody conjugated to phycoerythrin. While scFv clones CD33-1, -2, -3, -4, -5, -6, -7, -9, and CD33-UPenn were capable of binding hsCD33, we note that only scFv clone CD33-5 appeared to be cross-reactive to both hsCD33 and cyCD33 (FIG. 32).

T1 sequence (P20138 18-259 limits assumed): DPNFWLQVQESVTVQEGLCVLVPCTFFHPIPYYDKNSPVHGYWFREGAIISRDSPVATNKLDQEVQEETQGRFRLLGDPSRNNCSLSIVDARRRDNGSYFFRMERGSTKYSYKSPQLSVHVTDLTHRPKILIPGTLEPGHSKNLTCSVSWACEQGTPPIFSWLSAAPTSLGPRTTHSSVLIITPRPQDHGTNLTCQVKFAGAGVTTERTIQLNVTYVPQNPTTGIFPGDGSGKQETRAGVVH

binding result: binds
B1: CD33-UPenn (scFv based on the sequence of Mylotarg; humanized My96) (scFv, not shown: small tags and cut ends)
chain: EIVLTQSPGSLAVSPGERVTMSCKSSQSVFFSSSQKNYLAWYQQIPGQSPRLLIYWASTRESGVPDRFTGSGSGTDFTLTISSVQPEDLAIYYCHQYLSSRTFGQGTKLEIKRGGGGSGGGGSSGGGSQVQLQQPGAEVVKPGASVKMSCKASGYTFTSYYIHWIKQTPGQGLEWVGVIYPGNDDISYNQKFQGKATLTADKSSTTAYMQLSSLTSEDSAVYYCAREVRLRYFDVWGQGTTVTVSS
notes: also called CAR33-UPenn
